Measurements as given in the domain aggregation screens of Martell et al. (2025).

Assay: soluble fraction after stress (log2 fold change); higher = more stays soluble; pooled small domains, quantitative proteomics
Details: stress: 50 degC
In short: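 Pooled custom libraries of small protein domains were measured in a high-throughput format, with quantitative proteomics as the read-out. Each library was stressed at 50°C. Aggregation propensity is given as the base-two logarithm of the fold change in how much of each protein stays soluble after the stress. Higher values mean a larger share of the protein remains in solution.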

Sequence | soluble fraction (log2)
HMDDLFGNAIEMFNNQRYDMTYELLVQLLSETPNNEKAWQLLADTKFMLGDYDDALHIVGKAAK | -0.89
HMNTLLGLSNSFQDNKDLENANSISRRFISYRPRSEAELRIRLLKVFSHEIVLESVAQMYREGLLNDQRF | -3.33
HMNFMDGFQSFFQESGAMNRPMTADVVSYRLPDGTVQQGNSTMRGLMDQYLKSIGQSPTTGVP | 0.00775
HMINLRTALNNAGVMQKELSDILYMTPQDVNRRFSGVTKWKPLEKRAIMQFLEDRGFEYTEEQLF | -0.532
HMSNTPHSREVLLEMDAVRRLLAVGEEKGEVDRADLQGAFEEAELGRGDLDGVLSILREYDVPLAR | 0.0709
HMETSLVIQIDGAVNSPGIYQVTPGTRIFEALELAGGVREDAQTEALNLALPVYDGQRISIPSSFA | 0.0796
HMLQKEVHQQIQQALRALPYHQRTAIVLYYYEGMSVKEIAQATGSMQGTVQSRLFFARKKLRPILESILKK | -0.453
HMGEIHAQIPGLVSHLFVKEGNTVQVEQKLFILEAMKMENEIDSPIQGTVKRIHIATGSKVEKGDLIMEIS | -0.505
HMSMEIQEIIRQLREKNDWSQEDMAERVGLSKNGYAKIERGETNLNLERLEQIANLFDLSVIDLIEMS | -0.796
HMYAMTAEDWIVSGNRKYINDDLQGAIADYTKAIEIDPNYAAIYLVRGKAKYELKNYQGAIEDYTKAIE | -1.13
HMQAVKQIKVERGMTLEKIAQSEFGDSTRWGEIVEVNNLRAPYISDDPTETRDGVLKPGSNLLIPIP | 0.094
HMGSLQPLLLAAIDALQTHIRSGLPFRVEERLAELDQFRTELQNGSVPPQRGVNRLWAFYEDEFRL | -0.798
HMAGEDPANLELMRLMDEEYMEHPTKGVLGMVDFLRALGILTGPKRVRRLLRKMGIMAIYPK | -0.0379
HMGIERTNADTSFSVNVYGKELIITSNKPLVVNIYAIDGTLVRTEQVTIGVNTVSGLPSGIYVVGQQKVVI | 0.297
HMNRQTGTVKWFNDAKGFGFITPESGPDLFVHFRSIQGAGFKSLQEGQRVTFVAVQGQKGMQADQVQA | -0.762
HMGEFVQLKNRTGSVIEAKILNYQNGKVKLQRKDGVIFVVPISIFDRMSSSIIENKAKEMDSF | 0.00542
HMTGEDIKKVILREYAREKSLLSIFHELSKVNSNVTLEVIKDIITNIDKLPNDLLQYFKEESSFYQKNKN | -0.397
HMILQTLSERVTETLRDWILHGHFKPGDKIEEVPIAERMGVSRTPVRAAFATLTNEGLIDHQPNRGYQVRV | -0.325
HMTKEEKEKREKYEKLMKKADELVTAKNHKEAVTVLGQAKAYANPQQTKEIEEKIKAQTAELDKG | 0.239
HMDEYFNPETVVHYLRELFDTYRENGGNPFEWFHSTFESVNLNPQNYRKDLITTIEKALIEWIEIFEKQ | -0.0143
HMIPDMSLELAMSEQTSKGDLYGDLPNDKLALMFNAISKKVPHTDDHKRKMVAIQTILESRAS | -0.251
HMSRGAIVTGTVIEKNQSGIYVDLGYKSDGIVPIEEFDGEESKYNVGDQIRVYVKKVDDGHGQLML | 0.126
HMALMLGGLIVYLNTTAPRDDIDLIELSKDTKAMAAFGNKLASPDYNGKQFALDWHELSRDEIMSKYFS | -0.987
HMAEKEYYYATDALNLRQGPGMEHTVKGEVVLGERVALLGLEGKWAKIQNAQGTTGYVFSAYLAPS | 0.0931
HMEYTVNRLAQISGVSKRTLRYYDEIGLLRPERVNPNGYRIYGQMQVDLLQQILFYRELGLPLEEIREII | -0.467
HMAMNLQETVLMQLRDLILRGTFEPGQRLSEQPLAERLKASRTPVRSALVTLEQEGLIEASETGKYLVRQ | -0.421
HMATEWLSSKEAAQRLGVSAATLYAYVSRGLLRSEGSSGQRERRYRADDVAQLRRRREVGRKAESIAASTL | -0.433
HMKIDLTPQEEKIYSVLETELTLDEIIMKTSIKAGEALAILMDLELKKLVASVAGGKYRRKA | 0.0271

Sequence | soluble fraction (log2)
HMRSRHYRFSTPFLDRLIAEIDWNSDNALSIFNQKLVHFDFLKYFSAIQPGSIVEIENLNFIWTGKRLEAH | -2.55
HMSAQQTFLRDAMRRLNMTRDSFAERIGVRRRALDTWLLPEDSSEYRTMPSIVEKFVGEILGREA | -0.453
HMVINVKEILERIKLVKGFHTQIEIARFLGVSKGTISNWLARNSVDFPLVISKLDGVDLNWLFTGIGMPQ | -3.18
HMSSDLLGVRVRRARARAGLTRRRLSLLSGVSERFLAQLESGQGNISIVLIRRVAAALGAELVELIGS | -0.74
HMVGLKWYDTGNKKPPIGTEYKNTELSEALKGHDRKEFTWKELDVLGVNITDKEQYIVVGENYYTQV | -0.197
HMLDPVLQREKDESFTDYHIRLFKNKDTYHIDTKTIATLLNKDQGTNYDESKWRKDFKQYERWNDYIMSKN | 0.145
HMRHLSVPSQDTQQVLQRLKVELALPEGARVRSDPSDPGRRLIPFTESVPQEMIDQYPVVSINI | 0.0489
HMEQTIKKYVNVATLNFRSGPSTSYSIISTLSKGTKVEVISTTNNWSKIIYDGKIGYVSSEYLSKSI | -2.1
HMTPTNILIVEDEKEIRRFVRTALESEGLRVFESETLQRGLIEAGTRKPDLIILDLGLPDGDGLSYIRDLR | -0.123
HMGVGITAPLAGNIFKIVVQPGDVVASGDVVLVLEAMKMETEIRAASGGTVSQVLVREGDAVDAGHTLITL | -0.764
HMFQEGLVAPPAYTRPESFRGWEVPEILRSGNFPAIAKWQHEESLRLTRERRPAMLEAYERRT | 0.121
HMGTRYVEFVIPGTGNHEVRIVSSNGSRQNVEVAGTYPGGARLRTKVDNGVRRVSFYVDNRLVEEKQ | 0.0416
HMKTRIQDLRKELGVTQSELADAVDVTRQTIISLEGGRYKASLVLAHKLAQFFHVTIEELFIFD | -2.21
HMLERPLKLKSHYVSAINEKVAVQFQAGEERKSIMGTLTEVNQDTIVIDDRGSVTEIPFKSIIRAKTVF | 0.258
HMSNSMISKDKAMSIALAKVSGATSSNIYIELEKDDGRYTYEGEINFNNKEYEFEIDAYTGNILKWEVDSI | -0.333
HMADKGTITNQQEKILKALILFPEGASIEEIQKAADLGIDKRQFQRRLNTLIESGQINRTGKSRGTKYHTI | 0.0555
HMSSSYTEMQLDKLKKLLEKETLLSSEKSELKSLIHDFDKIPEVVSPLIVGEYLRLKNKYIAVINSLE | -0.214
HMRVSNADALIGRRGKANSDIRRGDYGWVAIDGDVWKSKLADDITEDIPMGAIVEVLSRDSIILTVKP | -0.324
HMTTAGTAIVQTGNSGKLNLREQAYANAGILGRYSNGTAVTVLQKGAAWSYVEVKGQKGYMMSKFLKFTS | -0.0681
HMYFFNTFTQRLFDNPELTQEEAIRQMYPGISGVQTAEKLQENFMADVYIQAAIRQEIVVQLIR | -0.529
HMPQLVGDVDGDGRVSVTDGEWIRASYGALPWYAGWRAAADLDGSRKIDVVDLELLRTKMGN | -0.191
HMAIKTGAVTGHGVKVRKGPSTNEKAIHDVLYGSRLQILEEKNGFLKAKFEDGTTGWISKQFVTTTDKNLL | 0.223
HMSVSVEEDADGRVWVYYQDQKMDITDLFDENGVYGFNLEKGDRTVYVEVTKNADGTYSFTQTD | -0.0127
HMIDVNLVQRGKTLHLRRRVPMRYSSVERREYVSISLKTDSEAEARRKAGAAWDQMIAAWEARLA | -0.35
HMDAINYEDFQLLIKQRGSFKVAFEDIMFSTKVAIEKKEDFYDFVTKLIDNGFNNMAYNYLEGFQD | -2.09
HMRTYEHALTEEEKELILIVSNLSEYKSLPPSQIVPKLADLGIYIASESSFYRVLRAHNQLHHRGR | -2.56
HMIKRITDEQHPVDVDRLLVVTFTNAAASEMRERIGDAIEAALEKDPYNQHLQRQLTLVHNAQITTIDS | -0.0115
